Measured values taken from paper PMC6412877, “Novel Site-Specific Fatty Chain-Modified GLP-1 Receptor Agonist with Potent Antidiabetic Effects” (Molecules, 2019).
Where two headings read alike, the source gives them in different places. Ends that are not written are not given here. fatty chain = not defined here

Key:
Human GLP-1R (human) = Human GLP-1R (human) (UniProt P43220)
Mouse GLP-1R (mouse) = Mouse GLP-1R (mouse) (UniProt O35659)
[1] = biological target: Glucagon-like peptide-1 receptor extracellular domain; test: SPR; Biacore 8K, according to the user's manual; who was immobilised and the conditions are not stated
[2] = biological target: Glucagon-like peptide-1 receptor extracellular domain; test: as above; remark: listed apart in the source

Human GLP-1R (human), sequence (P43220 24-463): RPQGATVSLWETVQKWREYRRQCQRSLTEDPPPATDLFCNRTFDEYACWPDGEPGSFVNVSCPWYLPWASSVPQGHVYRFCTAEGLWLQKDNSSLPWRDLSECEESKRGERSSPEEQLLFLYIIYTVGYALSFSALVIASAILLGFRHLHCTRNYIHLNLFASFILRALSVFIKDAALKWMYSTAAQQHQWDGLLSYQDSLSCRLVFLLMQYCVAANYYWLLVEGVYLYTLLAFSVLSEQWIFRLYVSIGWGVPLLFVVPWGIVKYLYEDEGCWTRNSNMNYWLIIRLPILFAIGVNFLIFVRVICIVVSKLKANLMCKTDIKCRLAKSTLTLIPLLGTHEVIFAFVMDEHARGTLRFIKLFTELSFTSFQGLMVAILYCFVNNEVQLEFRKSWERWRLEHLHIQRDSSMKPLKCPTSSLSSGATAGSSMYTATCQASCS
Mouse GLP-1R (mouse), sequence (O35659 22-463): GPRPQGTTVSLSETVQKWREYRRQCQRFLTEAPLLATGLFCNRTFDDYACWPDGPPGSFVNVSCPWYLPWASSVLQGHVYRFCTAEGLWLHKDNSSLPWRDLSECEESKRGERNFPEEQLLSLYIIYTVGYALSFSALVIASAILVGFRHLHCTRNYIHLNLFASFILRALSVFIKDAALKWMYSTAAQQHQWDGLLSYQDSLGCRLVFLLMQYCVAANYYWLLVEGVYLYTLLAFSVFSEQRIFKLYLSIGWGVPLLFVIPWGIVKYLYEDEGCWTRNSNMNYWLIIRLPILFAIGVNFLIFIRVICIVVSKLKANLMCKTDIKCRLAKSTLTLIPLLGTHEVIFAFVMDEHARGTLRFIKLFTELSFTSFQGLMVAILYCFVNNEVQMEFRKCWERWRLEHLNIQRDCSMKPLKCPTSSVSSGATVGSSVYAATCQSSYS

Row | Binder | EC50 (nM), Human GLP-1R activation, in vitro cell assay (Human GLP-1R (human)) [nM] | Emax (%), Human GLP-1R activation, in vitro cell assay (Human GLP-1R (human)) [%] | EC50 (nM), Mouse GLP-1R activation, in vitro cell assay (Mouse GLP-1R (mouse)) [nM] | Emax (%), Mouse GLP-1R activation, in vitro cell assay (Mouse GLP-1R (mouse)) [%] | Kd [1] [nM] | Kd [2] [nM]
1 | FFYSSPSAKLETGGPSSGAPPPS [PEP13] | 0.064 | 96 | 0.051 | 110 | 98 | –
2 | FFYSSPSAYKETGGPSSGAPPPS [PEP14] | 0.051 | 105 | 0.034 | 150 | 53 | –
3 | FFYSSPSAYLKTGGPSSGAPPPS [PEP15] | 0.451 | 78 | 0.457 | 73 | 33 | –
4 | FFYSSPSAYLEKGGPSSGAPPPS [PEP16] | 0.111 | 92 | 0.101 | 93 | 23 | 25
5 | FFYSSPSAK(fatty chain)LETGGPSSGAPPPS (reading uncertain; also: fatty chain not given here) [PEP17] | 0.412 | 79 | 0.678 | 68 | 158 | –
6 | FFYSSPSAYK(fatty chain)ETGGPSSGAPPPS (reading uncertain; also: fatty chain not given here) [PEP18] | 0.391 | 78 | 0.351 | 78 | 62 | –
7 | FFYSSPSAYLK(fatty chain)TGGPSSGAPPPS (reading uncertain; also: fatty chain not given here) [PEP19] | 0.152 | 89 | 0.212 | 83 | 91 | –
8 | FFYSSPSAYLEK(fatty chain)GGPSSGAPPPS (reading uncertain; also: fatty chain not given here) [PEP20] | 0.062 | 98 | 0.051 | 99 | 25 | –
9 | KQYSSPTAWLVGGPSSGAPPPS [PEP09] | – | – | – | – | 253 | –
